Laboratory results reported in US7148021B2, “Human zona pellucida proteins and methods of their use in diagnosing male infertility” (Eastern Virginia Meical School, priority 2001, dated 2006).

Key:
sperm [1] = assay: Weighted acrosome scoring of fluorescence-stained sperm morphology types; format: cell-based, human; settings: for % of Type I (intact acrosome): column drawing 1; for % of Type II (damaged acrosome): column drawing 2; for % of Type III (equatorial segment): column drawing 3; for % of Type IV (no fluorescence in head): column drawing 4
Source text: A representative example of this method is as follows. […] (See Arts et al, 1994 for further details useful for this example).
In a second step, each type is given a score. In this example, Type I has fluorescence in the acrosomal region, indicating intact acrosome; Type II has fluorescence in a clearly damaged acrosome; Type III has fluorescence in the equatorial segment; and Type IV has no detectable fluorescence in the head. Each type, in the representative example is given a score as follow. Type I has 0 points, Type II has 1 point, Type III has 1.5 points and Type IV has 2 points. Of course different numbers of types may be scored and different weighting systems may be used, depending on knowledge of the system used and the conditions and reagents used for scoring each type. In this example, the sperm are examined under a fluorescence microscope and the percentage of each category is recorded. To determine the total AR score, the percentage of each category type is multiplied by the appropriate point and added together as shown in the equation below and in […]

sperm [2] = assay: Percentage of acrosome-reacted sperm as determined by FITC-PSA; format: cell-based, human; settings: NT 30 ng/ml, calcium ionophore 5 μM, rhZP3 30 ng/ml, solubilized zona 0.5 ZP/μl, Mean (±SEM); for % Acrosome reacted-sperm: n = 29 ejaculates
Source text: The acrosome reaction was studied in response to purified rhZP3, natural solubilized human ZP and the calcium ionophore.

[3] = system: sperm-zona pellucida binding; assay: Hemizona assay, inhibition of sperm-zona pellucida binding; format: cell-based, human
Source text: Isolation and purification procedures A wide variety of isolation and purification procedures for ZP3, ZP2, ZP1 as whole proteins, glycosylated fragments, complexes, conjugates and as fusion proteins may be used in embodiments of the invention. […] Furthermore, data were obtained that establish the ability of rhZP3 to induce the sperm acrosomal reaction. […] Each of the techniques most preferably uses a human glycosylated ZP3 and/or ZP2 and/or ZP1.
This procedure was used to evaluate recombinant human ZP3 as described above.
The hemizona assay is employed as a parallel assay to evaluate the binding ability of GFP-rhZP3 coated agarose beads. An aliquot of semen is processed as described above. Both sperm and artificial zona are processed as described above. For each hemizona pair, the HZI was calculated as follows: (number of test sperm bound to the hemizona/number of fertile sperm bound to hemizona)×100. […]
A hemizona assay is to be carried out as a parallel assay to evaluate the binding ability of GFP-rhZP3 coated agarose beads. […] After capacitation, sperm sample are ready for use in a HZA. […] The number of sperm tightly bound to the outer surface are counted. For each hemizona pair, the HZI is calculated as follows: (number of test sperm bound to the hemizona/number of fertile sperm bound to hemizona)×100 (Burkman, et al.,1988). […]

human sperm [4] = assay: Acrosome reaction by rhZP3 after sperm capacitation time course; format: cell-based; settings: 30 ng/mL, 4 hours capacitation
Method: The time course study of sperm capacitation in combination with rhZP3 was evaluated. After different periods of capacitation, sperm were treated with rhZP3 (30 ng/ml) for thirty minutes to trigger the acrosome reaction. […] In many embodiments with rhZP3 an approximate 4 hour capacitation time is preferred because at this time frame the sperm are 99% alive as compared to 86%, 82% and 66% of live sperm for 8, 12 and 24 hours of capacitation time respectively. Experiments were performed after 4 hours of capacitation. The ratio of acrosome-reacted spermatozoa increased by 1.5 fold, after incubation with 30 ng/mL rhZP3, as compared to controlled conditions. This increased activity is much stronger than the increased activity produced after incubation with rhZP3 made by CHO cells. The CHO cell product induced a similar percentage of acrosome reaction in human sperm following 24-hour sperm capacitation at a dose of 15–20 ng/μl (van Duin et al, 1994).

human sperm [5] = settings: 30 ng/mL; cited from earlier work
[6] = system: sperm-zona pellucida binding; settings: hemizona assay; cited from earlier work

CNc1ccc2oc(C[C@H]3O[C@@]4(CC[C@H]3C)O[C@H]([C@H](C)C(=O)c3ccc[nH]3)[C@H](C)C[C@H]4C)nc2c1C(=O)O [Calcium ionophore, reference compound]
AR percentage (sperm [1]): 32%
Score Type I (0 × %) (sperm [1]): 0
Score Type II (1 × %) (sperm [1]): 7
Score Type III (1.5 × %) (sperm [1]): 27
Score Type IV (2 × %) (sperm [1]): 30
Total AR score (sperm [1]): 64
% of Type I (intact acrosome) (sperm [1]): 60%
% of Type II (damaged acrosome) (sperm [1]): 7%
% of Type III (equatorial segment) (sperm [1]): 18%
% of Type IV (no fluorescence in head) (sperm [1]): 15%
% Sperm viability (sperm [2]): 96.5 (2.0) %
% Acrosome reacted-sperm (sperm [2]): 22.5%

B1: rhZP3: recombinant human zona pellucida protein 3 made by human ovarian cell line PA-1, correctly glycosylated (protein, listed as Homo sapiens)
chain: MELSYRLFICLLLWGSTELCYPQPLWLLQGGASHPETSVQPVLVECQEATLMVMVSKDLFGTGKLIRAADLTLGPEACEPLVSMDTEDVVRFEVGLHECGNSMQVTDDALVYSTFLLHDPRPVGNLSIVRTNRAEIPIECRYPRQGNVSSQAILPTWLPFRTTVFSEEKLTFSLRLMEENWNAEKRSPTFHLGDAAHLQAEIHTGSHVPLRLFVDHCVATPTPDQNASPYHTIVDFHGCLVDGLTDASSAFKVPRPGPDTLQFTVDVFHFANDSRNMIYITCHLKVTLAEQDPDELNKACSFSKPSNSWFPVEGPADICQCCNKGDCGTPSHSRRQPHVMSQWSRSASRNRRHVTEEADVTVGPLIFLDRRGDHEVEQWALPSDTSVVLLGVGLAVVVSLTLTAVILVLTRRCRTASHPVSASE
modifications: recombinant, glycosylated, made in PA-1 cells
notes: recombinant human zona pellucida protein 3 made by human ovarian cell line PA-1, correctly glycosylated
hemizona index, in words [3]: dramatically decreasing the hemizona index
increase of ratio of acrosome-reacted spermatozoa compared to control conditions (human sperm [4]): 1.5 fold
AR percentage (sperm [1]): 29%
Score Type I (0 × %) (sperm [1]): 0
Score Type II (1 × %) (sperm [1]): 12
Score Type III (1.5 × %) (sperm [1]): 33
Score Type IV (2 × %) (sperm [1]): 14
Total AR score (sperm [1]): 59
% of Type I (intact acrosome) (sperm [1]): 59%
% of Type II (damaged acrosome) (sperm [1]): 12%
% of Type III (equatorial segment) (sperm [1]): 22%
% of Type IV (no fluorescence in head) (sperm [1]): 7%
% Acrosome reacted-sperm (sperm [2]): 18.3%
live acrosome-reacted sperm (human sperm [5]): 19%±4.1%
minimally effective dose for sperm-zona pellucida binding inhibition [6]: 30 ng/mL
